Data on 1 protein can be found in publication PMC11151596, “Improving the enzymatic activity and stability of N-carbamoyl hydrolase using deep learning approach” (Microbial Cell Factories, 2024).

One may read the Km as the substrate concentration at which the rate is half of its maximum. A word on the kcat: it is the number of substrate molecules converted per active site and unit of time at saturation. Broadly, the kcat/Km is the turnover number divided by the Michaelis constant.

Substrate in this series: NC(=O)NC(C(=O)O)c1ccc(O)cc1
Nature of the series: HPLC of D-HPG formed, double reciprocal plot. Type of series: biochemical, Agrobacterium sp. KNK712. The note with it: 50 mM Tris-HCl pH 7.5, 65 °C, 0.1-10.0 mM CpHPG. The text has this: HPLC of D-HPG formed, double reciprocal plot on DCase (N-carbamoyl-D-amino acid amidohydrolase, EC 3.5.1.77; N-carbamoyl hydrolase)

B1: DCase (N-carbamoyl-D-amino acid amidohydrolase, EC 3.5.1.77; N-carbamoyl hydrolase) (Agrobacterium sp. KNK712) (protein)
chain: MTRQMILAVGQQGPIARAETREQVVVRLLDMLTKAASRGANFIVFPELALTTFFPRWHFTDEAELDSFYETEMPGPVVRPLFEKAAELGIGFNLGYAELVVEGGVKRRFNTSILVDKSGKIVGKYRKIHLPGHKEYEAYRPFQHLEKRYFEPGDLGFPVYDVDAAKMGMFICNDRRWPEAWRVMGLRGAEIICGGYNTPTHNPPVPQHDHLTSFHHLLSMQAGSYQNGAWSAAAGKVGMEENCMLLGHSCIVAPTGEIVALTTTLEDEVITAAVDLDRCRELREHIFNFKQHRQPQHYGLIAEL
notes: pET-28a(+)-Case, N- and C-terminal His6 tags, expressed in E. coli BL21(DE3), Ni-NTA purified, about 37 kDa
For B1, the Km is 2590 ± 220 µM, the turnover number (kcat) worked out at 7.98 ± 0.212 s⁻¹ and the kcat/Km came out at 3080 ± 218 M⁻¹ s⁻¹.
